Reference: paper PMC8590011, “WRN helicase safeguards deprotected replication forks in BRCA2-mutated cancer cells”

Target: FLAG-WRN K577M/E84A (UniProt Q14191 1-1432, E84A;K577M)
Test: EMSA; 2 mM ATPgS, 5 mM MgCl2; affinity similar to WT; Kd is only in Supp Fig 1e, value not in material; 35 mM Tris-HCl pH 7.5, 20 mM KCl, 5 mM MgCl2, 0.1 mg/ml BSA, 2 mM DTT, 5% glycerol, 2 mM ATPgS, 2 nM DNA, 15 min at RT; 5% 1x TBE native PAGE at 4 C
Conditions: protein: recombinant; tags: N-terminal FLAG (6xHis removed with TEV); label: 5' 32P on oligo B (as described for the CF preparation); four-strand regressed fork: AB partial duplex annealed to CD partial duplex

Chain of FLAG-WRN K577M/E84A (Q14191 whole entry E84A/K577M): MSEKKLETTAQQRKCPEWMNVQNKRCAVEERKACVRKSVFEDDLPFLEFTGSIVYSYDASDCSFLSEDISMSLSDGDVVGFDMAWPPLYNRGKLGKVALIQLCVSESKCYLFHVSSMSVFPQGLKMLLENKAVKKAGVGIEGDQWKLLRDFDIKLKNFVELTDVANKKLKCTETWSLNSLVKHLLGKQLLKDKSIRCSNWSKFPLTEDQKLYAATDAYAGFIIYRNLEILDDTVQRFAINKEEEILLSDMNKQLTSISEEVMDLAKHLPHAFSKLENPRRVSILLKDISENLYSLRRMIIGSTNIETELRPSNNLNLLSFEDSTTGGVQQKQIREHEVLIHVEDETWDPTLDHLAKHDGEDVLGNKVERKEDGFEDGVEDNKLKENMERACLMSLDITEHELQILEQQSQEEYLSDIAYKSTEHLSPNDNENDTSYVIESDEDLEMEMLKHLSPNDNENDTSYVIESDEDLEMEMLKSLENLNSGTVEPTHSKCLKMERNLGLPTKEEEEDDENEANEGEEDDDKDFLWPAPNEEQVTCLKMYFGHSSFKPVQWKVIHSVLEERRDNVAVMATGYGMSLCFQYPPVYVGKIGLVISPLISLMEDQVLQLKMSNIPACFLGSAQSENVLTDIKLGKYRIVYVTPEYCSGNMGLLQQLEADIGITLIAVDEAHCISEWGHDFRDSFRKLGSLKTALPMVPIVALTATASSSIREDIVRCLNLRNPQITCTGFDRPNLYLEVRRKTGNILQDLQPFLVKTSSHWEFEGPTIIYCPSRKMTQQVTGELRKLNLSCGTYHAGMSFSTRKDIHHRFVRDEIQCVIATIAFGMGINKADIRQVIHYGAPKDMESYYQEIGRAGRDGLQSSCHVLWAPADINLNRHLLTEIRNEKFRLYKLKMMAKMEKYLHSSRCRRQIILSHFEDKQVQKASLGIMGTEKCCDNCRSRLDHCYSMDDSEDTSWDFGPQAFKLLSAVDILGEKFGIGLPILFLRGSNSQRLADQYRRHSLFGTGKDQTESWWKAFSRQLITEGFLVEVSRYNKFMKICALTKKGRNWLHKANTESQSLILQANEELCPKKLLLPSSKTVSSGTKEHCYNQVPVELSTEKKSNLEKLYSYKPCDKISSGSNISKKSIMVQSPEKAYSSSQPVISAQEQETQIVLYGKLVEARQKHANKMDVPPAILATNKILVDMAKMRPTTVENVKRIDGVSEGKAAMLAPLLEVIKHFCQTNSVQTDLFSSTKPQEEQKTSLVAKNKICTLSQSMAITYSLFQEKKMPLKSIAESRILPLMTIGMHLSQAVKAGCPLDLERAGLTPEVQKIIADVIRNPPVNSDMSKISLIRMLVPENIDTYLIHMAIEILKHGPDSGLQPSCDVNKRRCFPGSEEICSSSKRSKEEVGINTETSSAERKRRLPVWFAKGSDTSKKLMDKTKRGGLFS

B1: chicken-foot (CF) reversed fork substrate, oligos A+B+C+D (structured_DNA)
DNA 1: CTTTAGCTGCATATTTACAACATGTTGACCTTCAGTACAATCTGCTCTGATGCCGCATAGTGTCATGCCAGAGCTTTGTAC
DNA 2: CGGGTGTCGGGGCGCATGACACTATGCGGCATCAGAGCAGATTGTACTGAAGGTCAACATGTTGTAAATATGCAGCTAAAG
DNA 3: GTACAAAGCTCTGGCATGATACTATGCGGCATCAGAGCAGATT
DNA 4: TCAGTACAATCTGCTCTGATGCCGCATAGTATCATGCGCCCCGACACCCG
modifications: iMe-isodC at position 38 of oligo A (written as C)
- binding result: binds
